Assays:
Assay in all cases: holdup assay
Parameters in all cases: key: below the threshold = too weak to quantify, mostly under pKd 3.1 to 4
[1] = molecular target: TJP2_1, Q9UDY2
[2] = molecular target: MAGI1_2, Q96QZ7
[3] = molecular target: T1, DVL3, Q92997
T1 sequence (Q92997 244-331, limits assumed, looked up): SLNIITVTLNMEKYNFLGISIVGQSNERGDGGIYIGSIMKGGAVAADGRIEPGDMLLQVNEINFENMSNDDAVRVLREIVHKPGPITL

[4] = molecular target: NHERF2_2, Q15599
[5] = molecular target: Inadl_10, Q8NI35
[6] = molecular target: MAGI2_5, Q86UL8
[7] = molecular target: T2, CARD11, Q9BXL7
T2 sequence (Q9BXL7 662-765, limits assumed, looked up): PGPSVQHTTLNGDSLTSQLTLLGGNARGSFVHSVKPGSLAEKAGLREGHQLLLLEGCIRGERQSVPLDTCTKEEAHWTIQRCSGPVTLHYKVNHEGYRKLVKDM

[8] = molecular target: Inadl_6, Q8NI35
[9] = molecular target: T3, DFNB31_1, Q9P202
T3 sequence (Q9P202 135-233, limits assumed, looked up): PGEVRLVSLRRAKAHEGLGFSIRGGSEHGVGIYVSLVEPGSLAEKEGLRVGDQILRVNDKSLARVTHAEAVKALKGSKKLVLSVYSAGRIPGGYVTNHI

[10] = molecular target: T4, GRIP1_3, Q9Y3R0
T4 sequence (Q9Y3R0 247-346, limits assumed, looked up): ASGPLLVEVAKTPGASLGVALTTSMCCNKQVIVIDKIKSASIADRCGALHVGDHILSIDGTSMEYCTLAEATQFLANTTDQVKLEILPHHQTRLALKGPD

[11] = molecular target: MAST1, Q9Y2H9
[12] = molecular target: T5, LNX2_3, Q8N448
T5 sequence (Q8N448 463-564, limits assumed, looked up): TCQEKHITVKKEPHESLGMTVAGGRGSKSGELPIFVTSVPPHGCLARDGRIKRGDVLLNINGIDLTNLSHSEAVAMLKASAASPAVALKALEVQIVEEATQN

[13] = molecular target: PTPN3, P26045
[14] = molecular target: T6, DLG3_3, Q92796
T6 sequence (Q92796 374-475, limits assumed, looked up): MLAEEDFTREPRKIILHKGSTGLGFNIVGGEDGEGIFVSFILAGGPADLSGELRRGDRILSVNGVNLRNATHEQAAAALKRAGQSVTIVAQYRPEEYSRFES

[15] = molecular target: SCRIB_3, Q14160
[16] = molecular target: CASK, O14936
[17] = molecular target: T7, DFNB31_3, Q9P202
T7 sequence (Q9P202 811-907, limits assumed, looked up): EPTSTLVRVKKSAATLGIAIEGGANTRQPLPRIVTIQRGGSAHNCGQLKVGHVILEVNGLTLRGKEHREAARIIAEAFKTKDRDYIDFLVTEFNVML

[18] = molecular target: DLG1_1, Q12959
[19] = molecular target: T8, RHPN1, Q8TCX5
T8 sequence (Q8TCX5 508-602, limits assumed, looked up): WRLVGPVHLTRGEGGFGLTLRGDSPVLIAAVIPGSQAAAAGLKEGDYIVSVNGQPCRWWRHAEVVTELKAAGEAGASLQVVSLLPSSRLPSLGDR

[20] = molecular target: T9, GRIP1_7, Q9Y3R0
T9 sequence (Q9Y3R0 999-1096, limits assumed, looked up): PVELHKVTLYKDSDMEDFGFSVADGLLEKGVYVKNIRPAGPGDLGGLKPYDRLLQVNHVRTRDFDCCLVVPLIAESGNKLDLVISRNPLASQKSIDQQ

[21] = molecular target: GRID2IP_2, A4D2P6
[22] = molecular target: T10, PCLO, Q9Y6V0
T10 sequence (Q9Y6V0 4491-4600, limits assumed, looked up): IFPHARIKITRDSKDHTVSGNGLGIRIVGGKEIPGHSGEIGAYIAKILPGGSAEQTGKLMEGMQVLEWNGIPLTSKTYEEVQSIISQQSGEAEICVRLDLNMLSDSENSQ

[23] = molecular target: DLG4_3, P78352
[24] = molecular target: MAGI2_3, Q86UL8
[25] = molecular target: T11, TIAM2, Q8IVF5
T11 sequence (Q8IVF5 885-986, limits assumed, looked up): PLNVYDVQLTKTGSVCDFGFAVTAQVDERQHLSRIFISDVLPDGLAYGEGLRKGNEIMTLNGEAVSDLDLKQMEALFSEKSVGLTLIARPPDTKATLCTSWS

[26] = molecular target: DLG1_2, Q12959
[27] = molecular target: FRMPD3, Q5JV73
[28] = plain residues with an end cap or a label only (N-terminal biotin on a linker: ahx)
[29] = plain residues with an end cap or a label only (N-terminal biotin on a linker: ado-ado)
[30] = plain residues with an end cap or a label only (N-terminal biotin on a linker: ttds)

Chain of Inadl_6, Q8NI35 (Q8NI35 1058-1167): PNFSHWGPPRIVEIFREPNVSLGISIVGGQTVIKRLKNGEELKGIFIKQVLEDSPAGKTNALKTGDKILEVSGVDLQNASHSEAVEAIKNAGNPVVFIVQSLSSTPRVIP
Chain of MAGI1_2, Q96QZ7 (Q96QZ7 456-580): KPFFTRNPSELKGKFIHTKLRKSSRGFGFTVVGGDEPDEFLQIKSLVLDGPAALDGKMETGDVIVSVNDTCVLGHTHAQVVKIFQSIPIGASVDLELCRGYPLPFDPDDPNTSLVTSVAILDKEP
Chain of DLG4_3, P78352 (P78352 306-403): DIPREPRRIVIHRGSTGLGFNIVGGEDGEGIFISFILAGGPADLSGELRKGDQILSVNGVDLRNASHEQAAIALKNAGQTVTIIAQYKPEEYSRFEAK
Chain of SCRIB_3, Q14160 (Q14160 999-1103): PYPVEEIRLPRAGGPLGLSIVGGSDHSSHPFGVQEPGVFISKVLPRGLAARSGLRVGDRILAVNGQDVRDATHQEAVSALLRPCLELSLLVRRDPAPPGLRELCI
Chain of TJP2_1, Q9UDY2 (Q9UDY2 24-128): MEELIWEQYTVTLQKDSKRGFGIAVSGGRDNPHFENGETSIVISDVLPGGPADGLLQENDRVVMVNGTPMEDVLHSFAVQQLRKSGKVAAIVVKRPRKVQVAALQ
Chain of NHERF2_2, Q15599 (Q15599 142-238): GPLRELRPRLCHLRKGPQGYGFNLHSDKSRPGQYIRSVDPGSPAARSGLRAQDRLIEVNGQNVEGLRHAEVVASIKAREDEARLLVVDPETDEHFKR
Chain of Inadl_10, Q8NI35 (Q8NI35 1673-1763): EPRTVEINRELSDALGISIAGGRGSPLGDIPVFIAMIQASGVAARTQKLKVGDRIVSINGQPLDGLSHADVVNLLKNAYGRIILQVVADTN
Chain of GRID2IP_2, A4D2P6 (A4D2P6 272-370): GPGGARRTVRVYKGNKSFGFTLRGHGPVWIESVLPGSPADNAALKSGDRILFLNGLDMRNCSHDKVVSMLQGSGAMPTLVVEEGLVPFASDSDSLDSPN
Chain of FRMPD3, Q5JV73 (Q5JV73 12-100): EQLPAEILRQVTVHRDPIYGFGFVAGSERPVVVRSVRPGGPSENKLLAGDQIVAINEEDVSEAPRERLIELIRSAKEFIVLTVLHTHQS
Chain of CASK, O14936 (O14936 487-570): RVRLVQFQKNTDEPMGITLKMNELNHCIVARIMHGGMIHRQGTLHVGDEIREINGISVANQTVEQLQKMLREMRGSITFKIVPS
Chain of MAST1, Q9Y2H9 (Q9Y2H9 962-1065): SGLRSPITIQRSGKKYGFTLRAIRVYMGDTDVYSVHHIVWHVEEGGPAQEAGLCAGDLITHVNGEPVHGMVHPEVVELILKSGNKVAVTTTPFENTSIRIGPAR
Chain of MAGI2_5, Q86UL8 (Q86UL8 915-1017): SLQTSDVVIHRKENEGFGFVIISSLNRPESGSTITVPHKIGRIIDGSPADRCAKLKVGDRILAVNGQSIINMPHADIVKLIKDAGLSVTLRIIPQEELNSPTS
Chain of MAGI2_3, Q86UL8 (Q86UL8 600-682): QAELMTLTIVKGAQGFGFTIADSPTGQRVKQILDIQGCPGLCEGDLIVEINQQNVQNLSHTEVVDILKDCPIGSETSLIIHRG
Chain of PTPN3, P26045 (P26045 505-587): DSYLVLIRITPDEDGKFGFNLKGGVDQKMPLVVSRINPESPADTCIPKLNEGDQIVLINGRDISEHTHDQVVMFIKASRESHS

B1: SHROOM3, Q8TF72 (peptide)
chain: GIFPTLTSPL
B1 was tested, and the pKd [1, 28] was “below the threshold”, the pKd [2, 28] was “below the threshold” and the pKd [3, 28] was “below the threshold”. For the same binder, the pKd [4, 28] was 3.66, the pKd [5, 28] was “below the threshold” and the pKd [6, 28] was “below the threshold”. The pKd [7, 28] was “below the threshold”, the pKd [8, 28] was “below the threshold” and the pKd [9, 28] was “below the threshold”. The pKd [10, 28] was “below the threshold”, the pKd [11, 28] was 3.5 and the pKd [12, 28] was “below the threshold”. The pKd [13, 28] was 3.99, the pKd [14, 28] was “below the threshold” and the pKd [15, 28] was “below the threshold”. The pKd [16, 28] was “below the threshold”, the pKd [17, 28] was “below the threshold” and the pKd [18, 28] was “below the threshold”. The pKd [19, 28] was 4.27, the pKd [20, 28] was “below the threshold” and the pKd [21, 28] was “below the threshold”. The pKd [22, 28] was “below the threshold”, the pKd [23, 28] was “below the threshold” and the pKd [24, 28] was “below the threshold”. For the same binder, the pKd [25, 28] was “below the threshold”, the pKd [26, 28] was “below the threshold” and the pKd [27, 28] was “below the threshold”.

B2: ACOT6, Q3I5F7 (peptide)
chain: GKKSVKHSKI
In the case of B2, the pKd [1, 29] is reported as “below the threshold”, the pKd [2, 29] is reported as “below the threshold” and the pKd [3, 29] is reported as “below the threshold”. For the same binder, the pKd [4, 29] was “below the threshold”, the pKd [5, 29] was “below the threshold” and the pKd [6, 29] was “below the threshold”. The pKd [7, 29] was “below the threshold”, the pKd [8, 29] was “below the threshold” and the pKd [9, 29] was 4.33. The pKd [10, 29] was “below the threshold”, the pKd [11, 29] was “below the threshold” and the pKd [12, 29] was “below the threshold”. The pKd [13, 29] was 4.19, the pKd [14, 29] was “below the threshold” and the pKd [15, 29] was “below the threshold”. For the same binder, the pKd [16, 29] was “below the threshold”, the pKd [17, 29] was 3.85 and the pKd [18, 29] was “below the threshold”. The pKd [19, 29] was “below the threshold”, the pKd [20, 29] was “below the threshold” and the pKd [21, 29] was 3.83. For the same binder, the pKd [22, 29] was “below the threshold”, the pKd [23, 29] was 3.68 and the pKd [24, 29] was “below the threshold”. For the same binder, the pKd [25, 29] was “below the threshold”, the pKd [26, 29] was 3.97 and the pKd [27, 29] was “below the threshold”.

B3: CTNNB1, P35222 (peptide)
chain: NQLAWFDTDL
B3 was tested, and the pKd [1, 30] was “below the threshold”, the pKd [2, 30] was “below the threshold” and the pKd [3, 30] was “below the threshold”. For the same binder, the pKd [4, 30] was 4.87, the pKd [5, 30] was “below the threshold” and the pKd [6, 30] was “below the threshold”. The pKd [7, 30] was “below the threshold”, the pKd [8, 30] was 4.13 and the pKd [9, 30] was 4.28. For the same binder, the pKd [10, 30] was “below the threshold”, the pKd [11, 30] was 4.83 and the pKd [12, 30] was “below the threshold”. For the same binder, the pKd [13, 30] was 4.33, the pKd [14, 30] was “below the threshold” and the pKd [15, 30] was 4.82. For the same binder, the pKd [16, 30] was “below the threshold”, the pKd [17, 30] was “below the threshold” and the pKd [18, 30] was “below the threshold”. For the same binder, the pKd [19, 30] was 4.46, the pKd [20, 30] was 3.63 and the pKd [21, 30] was “below the threshold”. For the same binder, the pKd [22, 30] was “below the threshold”, the pKd [23, 30] was “below the threshold” and the pKd [24, 30] was “below the threshold”. For the same binder, the pKd [25, 30] was “below the threshold”, the pKd [26, 30] was “below the threshold” and the pKd [27, 30] was “below the threshold”.

— PMC9482650, “Quantitative fragmentomics allow affinity mapping of interactomes” (Nature Communications, 2022)
